Substitutions are numbered along the chain they refer to.
Legend:
[1] = molecular target: T1, FLAG-Erf2p (yeast (S. cerevisiae), UniProt Q06551 1-359); assay: co-purification on GSH-agarose from yeast extracts, anti-FLAG immunoblot
T1 construct: Expressed in yeast RJY543 (pESC) or in E. coli XL1 Blue (pFLAG-MAC operon fusion); also called FLAG-tagged Erf2p; yeast Erf2
T1 sequence: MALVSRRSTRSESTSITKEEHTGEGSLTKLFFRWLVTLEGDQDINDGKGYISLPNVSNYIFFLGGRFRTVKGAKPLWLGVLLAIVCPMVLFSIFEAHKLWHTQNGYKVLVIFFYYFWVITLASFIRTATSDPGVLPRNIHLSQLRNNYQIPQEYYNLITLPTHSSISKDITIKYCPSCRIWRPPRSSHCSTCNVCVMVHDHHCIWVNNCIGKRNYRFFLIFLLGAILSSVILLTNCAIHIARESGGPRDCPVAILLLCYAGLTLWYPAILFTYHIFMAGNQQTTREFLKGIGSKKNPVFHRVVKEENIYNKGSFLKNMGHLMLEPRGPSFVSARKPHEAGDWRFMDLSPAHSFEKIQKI
Method: (§1) Expression of FLAG-Erf2p was determined by affinity purification on anti-FLAG antibody linked to agarose beads followed by an anti-FLAG immunoblot (bottom panel). (FIG. 6C) The Ras PAT activity of partially purified extracts of ERF2 and ERF4 wild type and mutant strains was assayed as described in Example 1.
(§2) Purification of Erf2p/Erf4p Complex—RJY543 yeast cells expressing GST-Erf4p along with FLAG-Erf2p or FLAG-Erf2p mutants (Erf2(H201A)_p, Erf2(C189S)p, Erf2(C203S) p) were solubilized in Y-PER® reagent as described above. *E. coli* cells expressing GST-Erf4p along with FLAG-Erf2p or FLAG-Erf2p mutants (Erf2(H201A)p, Erf2(C203S)p) were lysed by high pressure (25,000 p.s.i.) homogenization (Avestin) in 50 mM Tris-HCl, pH 7.4, 150 mM NaCl, 1 mM DTT, 1 mM EDTA, and 0.13 mM phenylmethylsulfonyl fluoride (Buffer A). […]
(§3) Immunoblotting—Proteins bound to the GSH-agarose beads were analyzed for the presence of both GST and FLAG peptide fusion proteins. GST fusion proteins were detected by immunoblotting with rabbit anti-GST (Molecular Probes) antibody and peroxidase-conjugated goat anti-rabbit secondary antibody (Sigma). FLAG-tagged proteins were detected on Western blots by probing with anti-FLAG® M5 monoclonal antibody (Sigma) and peroxidase-conjugated sheep anti-mouse secondary antibody (Amersham Biosciences).

[2] = molecular target: T2, FLAG-Erf2(C189S)p (yeast (S. cerevisiae), UniProt Q06551 1-359); assay: co-purification on GSH-agarose from yeast extracts, immunoblot (FIG. 6B)
T2 construct: Loss-of-function mutant in the DHHC domain, expressed in yeast
T2 sequence: T1 sequence with C189S
Method: as §1, §2, §3

B1: GST-Erf4p (other)
chain: MCDSHQKEEDNANTSERALFFNYHEFSYSFYEDLGSEDAKPTEHDEDHKLCITHFPNVYAARGSAEFQVTRVVRVPRRFDESRSSLETPQFSTQLPGSEPAAIVGDDGTSFVRCGRYDIGDHVFGCSSVSPLSEYLSAAELAEVVHRVNGFLLREEGEVFGWRNLSGLLLDMLTGGLWSWVLGPLLSRPVFQESLALEQYVAQLNSPGGLLHERGVRLVLPRRSGCLSLDFVVPRPK
notes: also called yeast Erf4; YOL110W; not shown: glutathione S-transferase (GST) moiety fused in frame to the N-terminus; vector pEG(KG) in yeast, pFLAG-MAC operon fusio
[1]
  binding result: binds
[2]
  binding result: no binding
